From patent US20080293922A1 (POSCO, published 2008)

Target: T1, neuropilin-1 on MDA-MB-231 tumor cells (UniProt O14786 22-923, limits assumed)
T1 construct: whole, on cells
Experiment: Binding of VEGF to MDA-MB-231 cells with or without Aβ peptides (data not shown)

B1: Vascular endothelial growth factor VEGF165 (ligand)
chain: APMAEGGGQNHHEVVKFMDVYQRSYCHPIETLVDIFQEYPDEIEYIFKPSCVPLMRCGGCCNDEGLECVPTEESNITMQIMRIKPHQGQHIGEMSFLQHNKCECRPKKDRARQENPCGPCSERRKHLFVQDPQTCKCSCKNTDSRCKARQLELNERTCRCDKPRR
modifications: 125I label in the radioligand, co-aggregation, dissociation and trapping assays (position not given)
notes: 125I-VEGF was bought from Amersham; also called 125I-VEGF; 125I-VEGF165
  binding result: binds
